# Test results from paper PMC9482650, “Quantitative fragmentomics allow affinity mapping of interactomes” (Nature Communications, 2022).
# T1: DVL3, Q92997
# T1 sequence (Q92997 244-331, limits assumed, looked up): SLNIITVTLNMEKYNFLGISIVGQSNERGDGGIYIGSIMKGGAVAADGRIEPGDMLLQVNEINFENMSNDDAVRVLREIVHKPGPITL
# T2: LIN7B, Q9HAP6
# T2 sequence (Q9HAP6 88-185, limits assumed, looked up): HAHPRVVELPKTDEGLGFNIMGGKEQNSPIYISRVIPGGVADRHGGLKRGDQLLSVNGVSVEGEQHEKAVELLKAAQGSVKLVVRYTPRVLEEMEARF
# T3: APBA2_2, Q99767
# T3 sequence (Q99767 654-744, limits assumed, looked up): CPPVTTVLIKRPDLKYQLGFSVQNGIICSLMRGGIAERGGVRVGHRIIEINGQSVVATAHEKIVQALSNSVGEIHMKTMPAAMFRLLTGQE
# T4: MPP2, Q14168
# T4 sequence (Q14168 180-250, limits assumed, looked up): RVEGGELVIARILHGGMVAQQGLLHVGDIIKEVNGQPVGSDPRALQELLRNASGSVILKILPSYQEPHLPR
# T5: ARHGEF11, O15085
# T5 sequence (O15085 42-136, limits assumed, looked up): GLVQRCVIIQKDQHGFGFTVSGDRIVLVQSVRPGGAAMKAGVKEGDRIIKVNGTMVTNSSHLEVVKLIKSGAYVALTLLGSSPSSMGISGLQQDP
# T6: SIPA1L2, Q9P2F8
# T6 sequence (Q9P2F8 945-1036, limits assumed, looked up): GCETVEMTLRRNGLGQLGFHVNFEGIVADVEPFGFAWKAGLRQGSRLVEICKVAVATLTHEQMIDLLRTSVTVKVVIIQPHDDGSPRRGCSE
# T7: ARHGAP21, Q5T5U3
# T7 sequence (Q5T5U3 45-169, limits assumed, looked up): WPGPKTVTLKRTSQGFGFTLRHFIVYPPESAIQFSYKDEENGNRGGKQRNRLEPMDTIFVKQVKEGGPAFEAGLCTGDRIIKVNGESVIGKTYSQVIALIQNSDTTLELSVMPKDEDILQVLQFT
# T8: DLG3_3, Q92796
# T8 sequence (Q92796 374-475, limits assumed, looked up): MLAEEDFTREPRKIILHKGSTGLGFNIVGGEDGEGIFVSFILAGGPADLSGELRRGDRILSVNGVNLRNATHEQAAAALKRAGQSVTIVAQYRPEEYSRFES
# T9: PARD3B_1, Q8TEW8
# T9 sequence (Q8TEW8 196-299, limits assumed, looked up): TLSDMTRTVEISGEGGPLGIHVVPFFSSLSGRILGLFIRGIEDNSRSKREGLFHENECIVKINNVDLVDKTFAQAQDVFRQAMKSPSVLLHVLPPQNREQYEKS
# T10: LIN7A, O14910
# T10 sequence (O14910 103-200, limits assumed, looked up): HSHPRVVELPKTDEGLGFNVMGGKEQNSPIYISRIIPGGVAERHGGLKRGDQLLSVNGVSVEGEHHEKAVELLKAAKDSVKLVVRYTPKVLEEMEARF
# T11: LNX2_3, Q8N448
# T11 sequence (Q8N448 463-564, limits assumed, looked up): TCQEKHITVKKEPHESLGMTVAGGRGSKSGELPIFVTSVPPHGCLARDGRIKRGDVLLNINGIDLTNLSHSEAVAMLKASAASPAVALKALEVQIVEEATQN
# T12: SNTA1, Q13424
# T12 sequence (Q13424 82-180, limits assumed, looked up): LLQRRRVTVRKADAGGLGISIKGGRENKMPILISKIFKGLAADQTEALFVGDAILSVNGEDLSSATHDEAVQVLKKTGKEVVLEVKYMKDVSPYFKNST
# Experiments:
# Experiment in all cases: holdup assay
# Design in all cases: key: below the threshold = too weak to quantify, mostly under pKd 3.1 to 4
# DVL3, Q92997 = target: T1, DVL3, Q92997
# GRASP, Q7Z6J2 = target: GRASP, Q7Z6J2
# GRASP, Q7Z6J2, sequence (Q7Z6J2 96-193): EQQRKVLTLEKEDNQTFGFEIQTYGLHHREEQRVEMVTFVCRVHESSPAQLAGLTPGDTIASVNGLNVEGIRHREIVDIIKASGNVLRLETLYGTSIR
# LIN7B, Q9HAP6 = target: T2, LIN7B, Q9HAP6
# APBA2_2, Q99767 = target: T3, APBA2_2, Q99767
# MAST1, Q9Y2H9 = target: MAST1, Q9Y2H9
# MAST1, Q9Y2H9, sequence (Q9Y2H9 962-1065): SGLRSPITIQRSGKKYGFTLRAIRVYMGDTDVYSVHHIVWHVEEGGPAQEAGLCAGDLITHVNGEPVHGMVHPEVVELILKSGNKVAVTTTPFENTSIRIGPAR
# IL16_1, Q14005 = target: IL16_1, Q14005
# IL16_1, Q14005, sequence (Q14005 210-306): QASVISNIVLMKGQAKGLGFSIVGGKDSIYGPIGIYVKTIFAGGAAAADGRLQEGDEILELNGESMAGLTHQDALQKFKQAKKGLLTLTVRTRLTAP
# NOS1, P29475 = target: NOS1, P29475
# NOS1, P29475, sequence (P29475 9-101): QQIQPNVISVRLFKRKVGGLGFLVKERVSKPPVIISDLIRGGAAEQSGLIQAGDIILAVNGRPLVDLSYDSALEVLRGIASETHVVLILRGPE
# CASK, O14936 = target: CASK, O14936
# CASK, O14936, sequence (O14936 487-570): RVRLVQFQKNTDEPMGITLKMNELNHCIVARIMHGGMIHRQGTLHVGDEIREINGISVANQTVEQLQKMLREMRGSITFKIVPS
# NHERF2_2, Q15599 = target: NHERF2_2, Q15599
# NHERF2_2, Q15599, sequence (Q15599 142-238): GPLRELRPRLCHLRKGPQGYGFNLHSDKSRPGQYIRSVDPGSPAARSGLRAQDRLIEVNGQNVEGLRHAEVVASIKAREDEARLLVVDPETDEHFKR
# MAGI2_2, Q86UL8 = target: MAGI2_2, Q86UL8
# MAGI2_2, Q86UL8, sequence (Q86UL8 410-522): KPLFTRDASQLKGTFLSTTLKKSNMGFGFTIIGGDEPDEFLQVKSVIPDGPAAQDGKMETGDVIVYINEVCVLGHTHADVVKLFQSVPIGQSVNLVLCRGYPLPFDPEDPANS
# HTRA2, O43464 = target: HTRA2, O43464
# HTRA2, O43464, sequence (O43464 355-458): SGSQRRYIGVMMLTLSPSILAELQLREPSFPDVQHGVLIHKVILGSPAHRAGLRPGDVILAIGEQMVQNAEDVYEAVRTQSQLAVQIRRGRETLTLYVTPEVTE
# MPP2, Q14168 = target: T4, MPP2, Q14168
# ARHGEF11, O15085 = target: T5, ARHGEF11, O15085
# SIPA1L2, Q9P2F8 = target: T6, SIPA1L2, Q9P2F8
# FRMPD4, Q14CM0 = target: FRMPD4, Q14CM0
# FRMPD4, Q14CM0, sequence (Q14CM0 67-160): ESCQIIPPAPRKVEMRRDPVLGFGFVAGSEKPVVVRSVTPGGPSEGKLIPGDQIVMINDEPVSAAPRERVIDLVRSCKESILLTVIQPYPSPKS
# ARHGAP21, Q5T5U3 = target: T7, ARHGAP21, Q5T5U3
# DLG3_3, Q92796 = target: T8, DLG3_3, Q92796
# PARD3B_1, Q8TEW8 = target: T9, PARD3B_1, Q8TEW8
# LIN7A, O14910 = target: T10, LIN7A, O14910
# LNX2_3, Q8N448 = target: T11, LNX2_3, Q8N448
# SCRIB_1, Q14160 = target: SCRIB_1, Q14160
# SCRIB_1, Q14160, sequence (Q14160 718-814): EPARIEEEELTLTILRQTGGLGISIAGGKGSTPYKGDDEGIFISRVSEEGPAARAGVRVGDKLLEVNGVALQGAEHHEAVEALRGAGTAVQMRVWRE
# PDLIM1, O00151 = target: PDLIM1, O00151
# PDLIM1, O00151, sequence (O00151 1-87): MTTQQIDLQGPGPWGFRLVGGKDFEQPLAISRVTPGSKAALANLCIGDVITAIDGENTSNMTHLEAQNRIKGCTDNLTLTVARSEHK
# HTRA1, Q92743 = target: HTRA1, Q92743
# HTRA1, Q92743, sequence (Q92743 360-477): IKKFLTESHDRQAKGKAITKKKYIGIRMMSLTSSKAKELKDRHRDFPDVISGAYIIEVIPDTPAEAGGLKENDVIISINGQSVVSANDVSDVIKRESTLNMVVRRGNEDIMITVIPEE
# GRIP2_6, Q9C0E4 = target: GRIP2_6, Q9C0E4
# GRIP2_6, Q9C0E4, sequence (Q9C0E4 648-740): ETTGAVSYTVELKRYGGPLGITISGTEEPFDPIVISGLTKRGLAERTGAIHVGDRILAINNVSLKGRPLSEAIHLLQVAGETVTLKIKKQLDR
# SNTA1, Q13424 = target: T12, SNTA1, Q13424
# [1] = plain residues with an end cap or a label only (N-terminal biotin on a linker: ttds)
# [2] = plain residues with an end cap or a label only (N-terminal biotin on a linker: ahx)
binder,measurement,setting,value
"PFRSRSPSEV [GPR6, P46095]",pKd,"DVL3, Q92997; [1]",3.6
same,pKd,"GRASP, Q7Z6J2; [1]",below the threshold
same,pKd,"LIN7B, Q9HAP6; [1]",below the threshold
same,pKd,"APBA2_2, Q99767; [1]",below the threshold
same,pKd,"MAST1, Q9Y2H9; [1]",below the threshold
same,pKd,"IL16_1, Q14005; [1]",below the threshold
same,pKd,"NOS1, P29475; [1]",3.74
same,pKd,"CASK, O14936; [1]",below the threshold
same,pKd,"NHERF2_2, Q15599; [1]",below the threshold
same,pKd,"MAGI2_2, Q86UL8; [1]",below the threshold
same,pKd,"HTRA2, O43464; [1]",below the threshold
same,pKd,"MPP2, Q14168; [1]",below the threshold
same,pKd,"ARHGEF11, O15085; [1]",below the threshold
same,pKd,"SIPA1L2, Q9P2F8; [1]",below the threshold
same,pKd,"FRMPD4, Q14CM0; [1]",below the threshold
same,pKd,"ARHGAP21, Q5T5U3; [1]",below the threshold
same,pKd,"DLG3_3, Q92796; [1]",below the threshold
same,pKd,"PARD3B_1, Q8TEW8; [1]",3.8
same,pKd,"LIN7A, O14910; [1]",below the threshold
same,pKd,"LNX2_3, Q8N448; [1]",below the threshold
same,pKd,"SCRIB_1, Q14160; [1]",below the threshold
same,pKd,"PDLIM1, O00151; [1]",below the threshold
same,pKd,"HTRA1, Q92743; [1]",below the threshold
same,pKd,"GRIP2_6, Q9C0E4; [1]",below the threshold
same,pKd,"SNTA1, Q13424; [1]",below the threshold
"SHSSKGETAV [FZD7, O75084]",pKd,"DVL3, Q92997; [1]",below the threshold
same,pKd,"GRASP, Q7Z6J2; [1]",3.45
same,pKd,"LIN7B, Q9HAP6; [1]",below the threshold
same,pKd,"APBA2_2, Q99767; [1]",below the threshold
same,pKd,"MAST1, Q9Y2H9; [1]",4.77
same,pKd,"IL16_1, Q14005; [1]",3.66
same,pKd,"NOS1, P29475; [1]",4.41
same,pKd,"CASK, O14936; [1]",below the threshold
same,pKd,"NHERF2_2, Q15599; [1]",below the threshold
same,pKd,"MAGI2_2, Q86UL8; [1]",4.67
same,pKd,"HTRA2, O43464; [1]",below the threshold
same,pKd,"MPP2, Q14168; [1]",below the threshold
same,pKd,"ARHGEF11, O15085; [1]",4.3
same,pKd,"SIPA1L2, Q9P2F8; [1]",below the threshold
same,pKd,"FRMPD4, Q14CM0; [1]",3.52
same,pKd,"ARHGAP21, Q5T5U3; [1]",below the threshold
same,pKd,"DLG3_3, Q92796; [1]",4.12
same,pKd,"PARD3B_1, Q8TEW8; [1]",3.52
same,pKd,"LIN7A, O14910; [1]",below the threshold
same,pKd,"LNX2_3, Q8N448; [1]",below the threshold
same,pKd,"SCRIB_1, Q14160; [1]",4.11
same,pKd,"PDLIM1, O00151; [1]",below the threshold
same,pKd,"HTRA1, Q92743; [1]",below the threshold
same,pKd,"GRIP2_6, Q9C0E4; [1]",3.58
same,pKd,"SNTA1, Q13424; [1]",4.34
"YNSFLSVTTV [PDZRN3, Q9UPQ7]",pKd,"DVL3, Q92997; [2]",below the threshold
same,pKd,"GRASP, Q7Z6J2; [2]",4.15
same,pKd,"LIN7B, Q9HAP6; [2]",below the threshold
same,pKd,"APBA2_2, Q99767; [2]",below the threshold
same,pKd,"MAST1, Q9Y2H9; [2]",3.98
same,pKd,"IL16_1, Q14005; [2]",below the threshold
same,pKd,"NOS1, P29475; [2]",below the threshold
same,pKd,"CASK, O14936; [2]",below the threshold
same,pKd,"NHERF2_2, Q15599; [2]",below the threshold
same,pKd,"MAGI2_2, Q86UL8; [2]",3.95
same,pKd,"HTRA2, O43464; [2]",3.48
same,pKd,"MPP2, Q14168; [2]",below the threshold
same,pKd,"ARHGEF11, O15085; [2]",4.06
same,pKd,"SIPA1L2, Q9P2F8; [2]",below the threshold
same,pKd,"FRMPD4, Q14CM0; [2]",below the threshold
same,pKd,"ARHGAP21, Q5T5U3; [2]",below the threshold
same,pKd,"DLG3_3, Q92796; [2]",3.67
same,pKd,"PARD3B_1, Q8TEW8; [2]",below the threshold
same,pKd,"LIN7A, O14910; [2]",below the threshold
same,pKd,"LNX2_3, Q8N448; [2]",below the threshold
same,pKd,"SCRIB_1, Q14160; [2]",3.62
same,pKd,"PDLIM1, O00151; [2]",below the threshold
same,pKd,"HTRA1, Q92743; [2]",4.3
same,pKd,"GRIP2_6, Q9C0E4; [2]",below the threshold
same,pKd,"SNTA1, Q13424; [2]",3.76
"KLVIKTETTV [RASSF6, Q6ZTQ3]",pKd,"DVL3, Q92997; [1]",below the threshold
same,pKd,"GRASP, Q7Z6J2; [1]",3.51
same,pKd,"LIN7B, Q9HAP6; [1]",3.81
same,pKd,"APBA2_2, Q99767; [1]",below the threshold
same,pKd,"MAST1, Q9Y2H9; [1]",4.68
same,pKd,"IL16_1, Q14005; [1]",below the threshold
same,pKd,"NOS1, P29475; [1]",3.58
same,pKd,"CASK, O14936; [1]",below the threshold
same,pKd,"NHERF2_2, Q15599; [1]",below the threshold
same,pKd,"MAGI2_2, Q86UL8; [1]",5.11
same,pKd,"HTRA2, O43464; [1]",below the threshold
same,pKd,"MPP2, Q14168; [1]",below the threshold
same,pKd,"ARHGEF11, O15085; [1]",3.91
same,pKd,"SIPA1L2, Q9P2F8; [1]",below the threshold
same,pKd,"FRMPD4, Q14CM0; [1]",below the threshold
same,pKd,"ARHGAP21, Q5T5U3; [1]",below the threshold
same,pKd,"DLG3_3, Q92796; [1]",4.43
same,pKd,"PARD3B_1, Q8TEW8; [1]",below the threshold
same,pKd,"LIN7A, O14910; [1]",3.65
same,pKd,"LNX2_3, Q8N448; [1]",below the threshold
same,pKd,"SCRIB_1, Q14160; [1]",3.9
same,pKd,"PDLIM1, O00151; [1]",below the threshold
same,pKd,"HTRA1, Q92743; [1]",3.75
same,pKd,"GRIP2_6, Q9C0E4; [1]",below the threshold
same,pKd,"SNTA1, Q13424; [1]",4.36
